In test [1] the target is Ultrabithorax full-length fused to the N-terminal half of Venus (VN-Ubx) (Drosophila) (UniProt P83949). Put plainly: split reporter (BiFC, NanoBiT); BiFC in HEK293 cells co-transfected with VN- and VC-plasmids and pCAG-mCherry; read 48 h after transfection; percent = Venus fluorescent cells in one hundred red fluorescent cells, three independent triplicates.
Test [2] addresses Ubx with E19G in the homeodomain, fused to VN (Ubx^E19G) (Drosophila). Described as above.
The target of test [3] is Ubx homeodomain fused to VN (UbxHD) (Drosophila). The test is described as above.
For test [4] the target is unchanged. The description is as above. The source holds these as a separate data set.
Test [5] concerns the target Antp^AAAA-Ubx BiFC complex (YPWM mutant Antp with VNUbx) (Drosophila) (UniProt P02833). Put plainly: split reporter (BiFC, NanoBiT) + FRET or BRET; BiFC-FRET in HEK293 cells: Venus reconstituted by the Antp-Ubx BiFC as acceptor, third protein fused to ECFP as donor; confocal spectral imaging 48 h after transfection; E-value by FRETTY in ImageJ.
In test [6] the target is AntpΔHD-Ubx BiFC pair (VC-AntpΔHD with VNUbx) (Drosophila) (UniProt P02833). The description is as above.

Like-named read-outs stand apart in the source and are kept apart here.

Results on nine molecules are retold here after paper PMC11290222.

Sequence of Ubx homeodomain fused to VN (UbxHD) (Drosophila) (P83949 whole entry, the tested form may be a part): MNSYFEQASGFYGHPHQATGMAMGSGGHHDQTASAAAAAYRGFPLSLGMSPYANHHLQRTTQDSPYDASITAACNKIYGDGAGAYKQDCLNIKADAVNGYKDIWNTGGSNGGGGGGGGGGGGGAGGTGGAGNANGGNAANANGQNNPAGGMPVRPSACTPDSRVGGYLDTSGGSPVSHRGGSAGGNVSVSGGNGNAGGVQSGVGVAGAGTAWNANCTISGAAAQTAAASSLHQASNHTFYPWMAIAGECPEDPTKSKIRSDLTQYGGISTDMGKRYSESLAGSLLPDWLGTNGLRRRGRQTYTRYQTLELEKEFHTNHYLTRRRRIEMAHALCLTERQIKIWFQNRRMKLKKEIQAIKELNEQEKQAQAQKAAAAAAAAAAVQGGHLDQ

For the molecule “Antp lacking homeodomain helix 1, fused to VC (AntpΔH1) (from UniProt P02833 1-378) (natural protein)”, in test [1], the percent of transfected cells positive in BiFC was 24%.
In the case of “Antp homeodomain with E19G, fused to VC (AntpHD^E19G) (domain or fragment)”, the percent of transfected cells positive in BiFC was found to be 67% in test [2] and 60% in test [1].
For “TBP without the PolyQ stretch, fused to a Venus half for BiFC (TBPΔQ) (from UniProt P20227 1-353) (natural protein)”, the figures for the percent of transfected cells positive in BiFC in test [3] and in test [1] were 15% and 34%, respectively.
As for “Antp lacking homeodomain helixes 1 and 2, fused to VC (AntpΔH1-2) (from UniProt P02833 1-378) (natural protein)”, the percent of transfected cells positive in BiFC in test [1] was determined as 12%.
For the molecule “Antennapedia full-length fused to the C-terminal half of Venus (VC-Antp) (from UniProt P02833 1-378) (natural protein)”, in test [2], the percent of transfected cells positive in BiFC turned out to be 86%.
In test [1], “Antp with the homeodomain deleted, fused to VC (AntpΔHD) (from UniProt P02833 1-378) (natural protein)” registered a percent of transfected cells positive in BiFC of 6%.
“Antp homeodomain fused to VC (AntpHD) (domain or fragment)”: the percent of transfected cells positive in BiFC in test [3] came to 96%.

B1: TATA-binding protein fused to a Venus half for BiFC (TBP) (natural protein)
chain: MDQMLSPNFSIPSIGTPLHQMEADQQIVANPVYHPPAVSQPDSLMPAPGSSSVQHQQQQQQSDASGGSGLFGHEPSLPLAHKQMQSYQPSASYQQQQQQQQLQSQAPGGGGSTPQSMMQPQTPQSMMAHMMPMSERSVGGSGAGGGGDALSNIHQTMGPSTPMTPATPGSADPGIVPQLQNIVSTVNLCCKLDLKKIALHARNAEYNPKRFAAVIMRIREPRTTALIFSSGKMVCTGAKSEDDSRLAARKYARIIQKLGFPAKFLDFKIQNMVGSCDVKFPIRLEGLVLTHCNFSSYEPELFPGLIYRMVRPRIVLLIFVSGKVVLTGAKVRQEIYDAFDKIFPILKKFKKQS
Molecule B1 returned a percent of transfected cells positive in BiFC in test [4] of 41%.

B2: Extradenticle fused to ECFP (natural protein)
chain: MEDPNRMLAHTGGMMAPQGYGLSGQDDGQNAGSENEVRKQKDIGEILQQIMSISEQSLDEAQARKHTLNCHRMKPALFSVLCEIKEKTVLSIRNTQEEEPPDPQLMRLDNMLIAEGVAGPEKGGGGAAAASAAAASQGGSLSIDGADNAIEHSDYRAKLAQIRQIYHQELEKYEQACNEFTTHVMNLLREQSRTRPITPKEIERMVQIIHKKFSSIQMQLKQSTCEAVMILRSRFLDARRKRRNFSKQASEILNEYFYSHLSNPYPSEEAKEELARKCGITVSQVSNWFGNKRIRYKKNIGKAQEEANLYAAKKAAGASPYSMAGPPSGTTTPMMSPAPPQDSMGYPMGSGGYDQQQPYDNSMGGYDPNLHQDLSP
Consider B2, for which the FRET E value in test [5] turned out to be 0.16; in test [6] it was 0.12.
